Test results: paper PMC5510750

Biological target: IFN-λ3 H11 displayed on yeast
Assay: flow cytometry on cells

Sequence of IL-10Rβ, monomeric soluble receptor (Q08334 20-220): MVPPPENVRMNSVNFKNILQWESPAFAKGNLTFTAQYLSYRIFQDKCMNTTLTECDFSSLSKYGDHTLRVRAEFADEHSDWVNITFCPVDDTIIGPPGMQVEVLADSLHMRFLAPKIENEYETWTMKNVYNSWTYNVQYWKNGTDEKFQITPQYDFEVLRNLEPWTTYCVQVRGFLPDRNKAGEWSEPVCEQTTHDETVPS

IL-10Rβ, monomeric soluble receptor (from UniProt Q08334 20-220)
Kd: 200 nM
